The source of these data is US20110189205A1 (UNIVERSITY OF ROCHESTER, published 2011).

This experiment has as its target T1, CGRP receptor on rat CNS1 glioma cells (rat, UniProt Q63118 24-464; Q9JJ74 27-148).
T1 construct: whole, on cells; Endogenous receptor; also called CGRP receptors of CNS1 glioma cells
Description: fluorescence microscopy, 30 nM FL-CGRP on CNS1 cells. On the procedure:
FIG. 13 is a panel of microscopy images illustrating that FL-CGRP binds to CNS1 glioma cells. CNS1 cells were incubated with 30 nM FL-CGRP for 30 minutes, and imaged using phase-contrast microscopy (right, upper and lower panels) and fluorescent microscopy for FL-CGRP (left, upper and lower panels).

No end group written: not given here. Alexa488 = Alexa488 dye (single fluorescent dye molecule)

T1 sequence (Q63118 24-464, chain 1 of 2): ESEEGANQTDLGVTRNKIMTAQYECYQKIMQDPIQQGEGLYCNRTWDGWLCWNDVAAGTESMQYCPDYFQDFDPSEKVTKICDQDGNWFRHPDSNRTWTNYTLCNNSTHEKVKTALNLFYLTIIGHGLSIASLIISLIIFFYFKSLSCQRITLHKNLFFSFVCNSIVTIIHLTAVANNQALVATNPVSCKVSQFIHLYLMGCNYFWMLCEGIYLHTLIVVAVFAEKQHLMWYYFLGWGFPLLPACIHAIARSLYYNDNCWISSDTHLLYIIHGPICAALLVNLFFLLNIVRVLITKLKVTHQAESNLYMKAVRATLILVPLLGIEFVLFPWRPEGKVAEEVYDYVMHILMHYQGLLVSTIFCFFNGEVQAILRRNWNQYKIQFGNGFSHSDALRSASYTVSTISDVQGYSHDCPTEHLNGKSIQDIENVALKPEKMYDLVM
T1 sequence (Q9JJ74 27-148, chain 2 of 2): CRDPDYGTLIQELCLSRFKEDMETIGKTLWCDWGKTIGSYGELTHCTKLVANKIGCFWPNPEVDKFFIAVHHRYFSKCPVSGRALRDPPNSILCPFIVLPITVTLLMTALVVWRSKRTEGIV

B1: fluorescently-labeled CGRP (FL-CGRP): rat CGRP with a single Alexa488 dye on lysine 24 (peptide, UniProt P01256 83-119, looked up)
peptide: SCNTATCVTHRLAGLLSRSGGVVK(Alexa488)DNFVPTNVGSEAF
modifications: ends and bridges not checked
notes: mature; the peptide itself is the mature 37-mer; also called single-labeled FL-CGRP
B1: the binding result is “binds”.
